Laboratory results as given in publication PMC2228010, “Production and characterization of a recombinant anti-MUC1 scFv reactive with human carcinomas” (British Journal of Cancer, 1997).

T1: immunodominant region related peptide APDTRPAPG (Homo sapiens MUC1 repeat, synthetic)
T1 construct: stretch of the MUC1 20 amino acid repeat; Free in solution for fluorescence quenching; source: synthetic peptide
T1 chain: APDTRPAPG


Tests used:
[1] = target: T1, immunodominant region related peptide …; assay: other fluorescence titration; fluorescence quenching in PBS, excitation 290 nm, emission 345 nm; C595 0.12 uM or C595 scFv 0.27 uM, 2.5 ul aliquots of 60 uM peptide added until maximum quenching; Scatchard analysis; conditions: both partners purified
p(1-25) peptide = target: T2, p(1-25) peptide (Homo sapiens MUC1 repeat, synthetic); assay: as above; conditions: both partners purified
T2 construct: 25 residues of the MUC1 tandem repeat region; source: synthetic peptide
T2 sequence (peptide, as listed by the source): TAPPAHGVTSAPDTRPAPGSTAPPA

60 mer MUC1 peptide = target: T3, 60 mer MUC1 peptide (Homo sapiens MUC1 repeat, synthetic, UniProt P15941); assay: as above; conditions: both partners purified
T3 construct: source: synthetic peptide, provided by Dr J Darrell Fontenot

105 mer MUC1 peptide = target: T4, 105 mer MUC1 peptide (Homo sapiens MUC1 repeat, synthetic, UniProt P15941); assay: as above; conditions: both partners purified
T4 construct: source: synthetic peptide, provided by Dr J Darrell Fontenot

[2] = target: T5, MUC1 antigen on human breast and bladder carcinoma tissue sections (Homo sapiens, UniProt P15941); assay: immunostaining of cells or tissue; 3 um paraffin sections of breast and transitional cell bladder tumours, no antigen retrieval; primary antibody 1 h; scFv detected with mouse anti-E-Tag (1:50); StreptABC/HRP, diaminobenzidine; conditions: one partner purified
T5 construct: MUC1 mucin in tumour tissue; also called breast tumour tissue sections; sections from bladder carcinomas; source: endogenous, archival paraffin sections of breast and transitional cell bladder tumours
T5 sequence (P15941 24-1255): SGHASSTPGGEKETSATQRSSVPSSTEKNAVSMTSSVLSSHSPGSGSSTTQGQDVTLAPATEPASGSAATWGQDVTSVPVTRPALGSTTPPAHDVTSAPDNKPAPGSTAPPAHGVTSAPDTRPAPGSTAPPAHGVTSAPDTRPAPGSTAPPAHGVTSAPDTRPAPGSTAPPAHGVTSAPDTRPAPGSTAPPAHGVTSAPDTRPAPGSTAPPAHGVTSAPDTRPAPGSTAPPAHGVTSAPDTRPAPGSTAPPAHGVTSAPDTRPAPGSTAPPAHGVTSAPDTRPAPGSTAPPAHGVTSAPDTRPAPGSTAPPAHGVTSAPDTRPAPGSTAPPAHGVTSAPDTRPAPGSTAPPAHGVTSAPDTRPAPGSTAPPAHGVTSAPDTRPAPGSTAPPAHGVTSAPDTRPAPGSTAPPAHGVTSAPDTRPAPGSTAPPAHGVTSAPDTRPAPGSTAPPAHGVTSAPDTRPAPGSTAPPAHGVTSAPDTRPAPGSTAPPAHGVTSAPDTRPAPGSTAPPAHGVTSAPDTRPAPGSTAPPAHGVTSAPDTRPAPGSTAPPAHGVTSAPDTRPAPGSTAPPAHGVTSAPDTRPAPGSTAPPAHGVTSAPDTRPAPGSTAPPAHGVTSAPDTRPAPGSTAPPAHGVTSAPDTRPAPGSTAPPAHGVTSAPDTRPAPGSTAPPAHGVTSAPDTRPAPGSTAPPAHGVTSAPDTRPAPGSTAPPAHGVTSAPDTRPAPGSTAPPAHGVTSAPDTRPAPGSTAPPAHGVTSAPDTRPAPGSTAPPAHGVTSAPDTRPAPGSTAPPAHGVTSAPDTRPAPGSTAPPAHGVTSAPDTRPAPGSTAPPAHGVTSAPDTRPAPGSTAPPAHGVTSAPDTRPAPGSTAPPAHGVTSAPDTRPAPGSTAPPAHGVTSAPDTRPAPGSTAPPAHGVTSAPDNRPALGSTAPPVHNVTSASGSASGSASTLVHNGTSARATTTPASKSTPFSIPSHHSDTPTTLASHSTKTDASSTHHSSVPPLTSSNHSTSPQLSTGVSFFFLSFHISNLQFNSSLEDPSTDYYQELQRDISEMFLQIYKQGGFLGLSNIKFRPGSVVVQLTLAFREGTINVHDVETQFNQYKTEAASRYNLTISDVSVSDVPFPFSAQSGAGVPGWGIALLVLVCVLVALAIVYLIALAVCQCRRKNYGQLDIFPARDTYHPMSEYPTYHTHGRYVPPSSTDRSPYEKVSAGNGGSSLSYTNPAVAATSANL

[3] = target: T1, immunodominant region related peptide …; assay: peptide epitope affinity chromatography; filtered bacterial supernatant applied to Sepharose 4B conjugated to APDTRPAPG; washed with PBS, 0.02% sodium azide; bound scFv eluted with 3 M sodium thiocyanate; eluate analysed by SDS-PAGE and anti-E-Tag Western blot; conditions: one partner purified

binding result [1] | binding result (p(1-25) peptide) | binding result (60 mer MUC1 peptide) | binding result (105 mer MUC1 peptide) | binding result [2] | binding result [3] | Binder
binds | binds | binds | binds | binds | – | Monoclonal antibody C595 (antibody, V domains shown, mouse IgG3 heavy chain constant region; mouse kappa light chain constant region; IgG3, kappa light chain; it was used at stated concentrations in PBS; also called NCRC-48; source: hybridoma (spleen cells of a BALB/c mouse immunized against purified MUC1 urinary mucin)) VH: EVQLVESGGGLVQPGGSLKLSCAASGFTFSSYGMSWVRQTPDKRLELVATINSNGGSTYYPDSVKGRFTISRDNAKNTLYLQMSSLKSEDTAMYYCARDRDGYDEGFDYWG VL: QIVLTQSPAIMSASPGEKVTMTCSASSSVSYMHWYQQKSGTSPKRWIYDTSKLASGVPARFSGSGSGTSYSLTISSMEAEDAATYYCQQWSSNPPTFGGGTKLEIK
– | binds | binds | binds | binds | binds | C595 scFv clone 31 (scFv, V domains shown, it is not written as a part; About 30 kDa on SDS-PAGE; also called recombinant C595 scFv; the scFv; source: E. coli HB2151 (pCANTAB 5E, IPTG), bacterial culture supernatant; not shown: E-Tag, C-terminal, kept) VH: QVQLQESGGGLVQPGGSLKLSCAASGFTFSSYGMSWVRQTPDKRLELVATINSNGGSTYYPDSVKGRFTISRDNAKNTLYLQMSSLKSEDTAMYYCARDRDGYDEGFDYWGPGTTVTVSS VL: DIELTQSPSIMSASPGEKVTMTCSASSSVSYMHWYQQKSGTSPKRWIYDTSKLASGVPARFSGSGSGTSYSLTISSMEAEDAATYYCQQWSSNPPTFGGRTKLELK
